B1: BAG3^P209L (recombinant) (natural protein)
chain: not shown
notes: BAG3, human, disease mutation P209L in the second IPV motif; Forms soluble higher order oligomers by SEC-MALS; source: E. coli BL21(DE3), purified (Ni-NTA, TEV cleavage, MonoQ)
B2: BAG3^P209I (recombinant) (natural protein)
chain: not shown
notes: BAG3, human, P209I; source: E. coli BL21(DE3), purified (Ni-NTA, TEV cleavage, MonoQ)
B3: BAG3^P209W (recombinant) (natural protein)
chain: not shown
notes: BAG3, human, P209W; source: E. coli BL21(DE3), purified (Ni-NTA, TEV cleavage, MonoQ)

Biological target: the molecule itself
Experiment: SEC-MALS; 30 µM BAG3 solutions separated on Shodex 804, in-line DAWN HELEOS and Optilab rEX detectors

Binding result, binds:
B1, B2, B3
